In patent publication US20150110788A1 (published 2015):
Each block holds one binder with its values, some of them ahead of it.

Columns and labels:
[1] = molecular target: FGF2 (UniProt P09038 143-288); test: ELISA
[2] = molecular target: T1, VEGF (UniProt P15692 27-191); test: ELISA
T1 chain: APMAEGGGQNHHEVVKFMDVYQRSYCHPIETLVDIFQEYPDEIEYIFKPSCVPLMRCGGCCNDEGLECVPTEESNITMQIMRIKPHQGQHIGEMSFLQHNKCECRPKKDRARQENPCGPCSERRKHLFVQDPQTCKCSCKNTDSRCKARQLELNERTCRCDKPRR

FGF2, sequence (P09038 143-288): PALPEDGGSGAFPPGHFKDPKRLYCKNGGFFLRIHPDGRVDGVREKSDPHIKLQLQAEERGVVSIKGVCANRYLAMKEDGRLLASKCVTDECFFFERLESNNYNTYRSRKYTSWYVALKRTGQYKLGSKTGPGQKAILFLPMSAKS

EC50 [1]: 0.1 nM
B1: HuGAL-F2 (antibody, V domains shown)
VH: EVQLVQSGAEVKKPGSSVKVSCKASGYTFTNYVINWVRQAPGQGLEWIGYNDPYNDVSKYNEKFKGRATITSDKSTSTAYMELSSLRSEDTAVYYCAKEGGGKYVYAMDSWGQGTTVTVSS
VL: DIQMTQSPSSLSASVGDRVTITCKASQSVSSDVGWYQQKPGKAPKLLIYSGSNRYSGVPSRFSGSGSGTDFTLTISSLQPEDFATYYCQQDYYSPWTFGQGTKVEIK

EC50 [2]: 1.43 nM
EC50 [1]: 0.35 nM
B2: X-Ava/F2 (bispecific antibody)
light 1: DIQMTQSPSSLSASVGDRVTITCKASQSVSSDVGWYQQKPGKAPKLLIYSGSNRYSGVPSRFSGSGSGTDFTLTISSLQPEDFATYYCQQDYYSPWTFGQGTKVEIKRTVAAPSVFIFPPSDEQLKSGTASVVCLLNNFYPREAKVQWKVDNALQSGNSQESVTEQDSKDSTYSLSSTLTLSKADYEKHKVYACEVTHQGLSSPVTKSFNRGEC
heavy 1: not shown
light 2: DIQMTQSPSSLSASVGDRVTITCSASQDISNYLNWYQQKPGKAPKVLIYFTSSLHSGVPSRFSGSGSGTDFTLTISSLQPEDFATYYCQQYSTVPWTFGQGTKVEIKSSASTKGPSVFPLAPSSKSTSGGTAALGCLVKDYFPEPVTVSWNSGALTSGVHTFPAVLQSSGLYSLSSVVTVPSSSLGTQTYICNVNHKPSNTKVDKRVEPKSC
heavy 2: not shown
